According to the supplement of paper PMC10567573:

B1: ZNF263 (parent)
chain: LLRHQRIHTGERPYKCPECGKSFS

Variants of: B1
Experiment: protein stability index of a GFP-peptide fusion (GPS, HEK-293T) (PSI 1-6); higher = more stable
Details: c terminus: a fixed tail appended
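Also: lentivirally expressed fusions sorted by FACS into six bins by GFP to DsRed ratio, PSI derived from sequencing read proportions per bin multiplied by bin number.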

Variant	protein stability index
LLRHQRIHTGERPYKCPECGKSCS	3.29
LLRHDRIHTGERPYKCPECGKSFS	2.23
LLRHSRIHTGERPYKCPECGKSFS	2.36
LLRHQRIHTGERPYKCPPCGKSFS	2.37
LLRHQRIHTGERPCKCPECGKSFS	3.63
LLRHQRIHTGMRPYKCPECGKSFS	1.99
LLRHQRIHTGGRPYKCPECGKSFS	2.63
LLRHQRIHTGCRPYKCPECGKSFS	1.96
LLRHQRIHTGERPYKCPECLKSFS	1.66
LLRHQRIHTGEEPYKCPECGKSFS	2.71
LLRHQRIHTGEKPYKCPECGKSFS	2.43
LLRHQRIHTGERPYKCPECGQSFS	2.75
LLRHQRIHTGERPYKCPECGESFS	2.53
LLRHQRIHTGERPYKCPECGYSFS	2.19
LLRHQRISTGERPYKCPECGKSFS	2.61
LLRHQRIYTGERPYKCPECGKSFS	1.59
LLRHQRAHTGERPYKCPECGKSFS	2.39

Variant	protein stability index
LLRHQRNHTGERPYKCPECGKSFS	2.1
LLRHQRIHTGERGYKCPECGKSFS	2.36
LLRHQGIHTGERPYKCPECGKSFS	2.08
LLRHQAIHTGERPYKCPECGKSFS	2.68
LLRHQLIHTGERPYKCPECGKSFS	2.41
QLRHQRIHTGERPYKCPECGKSFS	4.46
LLRHQRIHTGERPYKCCECGKSFS	2
LLRHQRIHTGERPYKWPECGKSFS	3.15
LLRHQRIHTGERPYKSPECGKSFS	2.73
LLDHQRIHTGERPYKCPECGKSFS	3.77
LLRHQRIHTWERPYKCPECGKSFS	1.69
LLRHQRIHTYERPYKCPECGKSFS	2.17
LLRYQRIHTGERPYKCPECGKSFS	2.12
LLRCQRIHTGERPYKCPECGKSFS	3.89
LLRAQRIHTGERPYKCPECGKSFS	2.18
LLRHQRIHTGERPYKCPECGKYFS	2.38
LLRHQRIHTGERPYKCPECGKTFS	2.23
